In the data set the test system is MS2 coat protein. The data set can be described thus: apparent KD of MS2 coat protein; designed switch direction (-1 OFF switch, 1 ON switch): -1; higher = weaker reporter binding. In a few lines:
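Transcription of designed RNA switches on Illumina chips was done by stalled E. coli RNA polymerase. SNAP-549-labelled MS2 coat protein was then titrated in doubling steps from 0.7 or 1.5 nM to 3 µM, with steps of 0.8–1.5 h at the lowest and 10–20 min at the highest concentration. The per-design median over clusters of curve-fitted normalised fluorescence is reported as apparent KD.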

Setting [1] is: Eterna round: R95, input ligand: FMN 200 uM.
Where [2] appears, read: Eterna round: R95, input ligand: microRNA oligo, concentration not stated.
The mark [3] stands for this setting: Eterna round: R95, input ligand: none.
Where [4] appears, read: input ligand: microRNA oligo, concentration not stated.

On to “AGAAAUGCCCAUGGCCACAAGCUUCUUGCUUGUCUUACUACAUGAGGAUCACCCAUGUAACAUGGGCUCCUGAUAAU [Maonesra] (puzzle: Sensor v3, turn-off variant 2)”, for which the “apparent KD of MS2 coat protein” value reads like this: under setting [1], 11.8 nM; under setting [2], 10.1 nM; under setting [3], 11.1 nM.
For “AGAAAUGCCCAUGGCCACAAGCUUUUUGCCUGUCUUACCACAUGAGGAUCACCCAUGUGACAUGGGCUCCUGAUAAU [Didilaeren] (puzzle: Sensor v3, turn-off variant 2)” the same measures were 15.8 nM, 305 nM and 14.3 nM.
As to “AGAAAUGCCCGUGACCACAAGCUUUUUGCUUGUCUUACUACAUGAGGAUCACCCAUGUAACAUGGGCUCCUGACAAU [Maleisar] (puzzle: Sensor v3, turn-off variant 2)”, the “apparent KD of MS2 coat protein” value runs as follows: under setting [1], 14.7 nM; under setting [2], 9.6 nM; under setting [3], 12.5 nM.
Take “AGAAAUGUCCAUGGCCGCAAGCUUUUUACUUGUCUUACCACAUGAGGAUCACCCAUGUGACAUGGACUCCUUAUGAU [Sensor v3, turn-off variant 2 (MOD of Oranla v.3)] (puzzle: Sensor v3, turn-off variant 2)”: the “apparent KD of MS2 coat protein” value is 17 nM under setting [1], 43 nM under setting [2] and 14.8 nM under setting [3].
With “AGAACAUGAGGAUCACCCAUGUCGCUUUGCCUACCAAACAGGGAGGAUAUGUAGGGCGCGCACCUACAGAAGGCCCAAACGGAA [Eternabot solution 13] (Eterna round: R96, puzzle: Exclusion NG 3)”, the “apparent KD of MS2 coat protein” value (input ligand: FMN 200 uM) was found to be 17 nM, the “apparent KD of MS2 coat protein” value under setting [4] was 18.5 nM and the “apparent KD of MS2 coat protein” value (input ligand: none) was determined as 22.5 nM.
“AGAAGACAUGAGGAUCACCCAUGUAAGGAUAUUGGAGGUUAGGGAUGCUGGAGUUGGACAAGAAGGUACAGGUG [JR_Exclu1_Sub091] (puzzle: Exclusion 1)”: under setting [2], the “apparent KD of MS2 coat protein” value came to 46.9 nM.
For the sequence “AGAAGACAUGAGGAUCACCCAUGUAAGGAUAUUGGAGGUUAGGGAUGCUGGAGUUGGGCAAGAAGGUACAGGUG [JR_Exclu1_Sub092] (puzzle: Exclusion 1)”, the “apparent KD of MS2 coat protein” value is, setting by setting: under setting [1], 46.9 nM; under setting [2], 49.8 nM; under setting [3], 81 nM.
The like results for “AGAAGUAGAAACCGAUCCUACAUGAGGAUCACCCAUGUAGCAAGACGUGCACGCGAAGCUCGUCAGACUACCAGAUG [salish99_TOv1_r3_017] (puzzle: Sensor v3, turn-off variant 1)” were, in that order, 297 nM, 108 nM and 313 nM.
Consider “AGAAGUAGUAACCGAUCCUACAUGAGGAUCACCCAUGUAGCUAGACGUGCACGCGAAGCUCGUCAGACUACCAGAUG [salish99_TOv1_r3_023] (puzzle: Sensor v3, turn-off variant 1)”, for which the “apparent KD of MS2 coat protein” value runs as follows: under setting [1], 298 nM; under setting [2], 273 nM; under setting [3], 212 nM.
As for “AGACGUCAAGUCAGGAUAUAGAGGCAAGUCCACCGCUAGAAGGGACAUGAGGAUCACCCAUGUAGGGUUUAGCU [Zainsoed] (puzzle: Brourd's mod of Exclusion 4)”, the “apparent KD of MS2 coat protein” value runs as follows: under setting [1], 101 nM; under setting [2], 157 nM; under setting [3], 135 nM.
For “AGAGAAUAGGUAGGAUAUCUUAAUAGAAAGAAUAGAGAAGGACCACAUGAGGAUCACCCAUGUGAAGUCUUGAGACUACAUGGU [Prohibition 31 - Jieux - Exclusion NG 1] (Eterna round: R96, puzzle: Exclusion NG 1)”, the “apparent KD of MS2 coat protein” value under setting [4] came to 15 nM.
As for “AGAGAAUAGUCAGGAUAUGUGAAUAGAUAGAGAACAGAAGGGACACAUGAGGAUCACCCAUGUGAAGUCUUGAGGCUGCAUGGA [Prohibition 22 - Jieux - Exclusion NG 1] (Eterna round: R96, puzzle: Exclusion NG 1)”, the “apparent KD of MS2 coat protein” value by setting is: (input ligand: FMN 200 uM) 43.9 nM; under setting [4], 24.1 nM; (input ligand: none) 39 nM.
For the sequence “AGAGCACGAGGAUAUACAAGGAUAACUCGCAGAUCGUCAGUACAUGAGGAUCACCCAUGUAGAAGGUGUUAGCA [Eternabot (Original) Solution 6] (Eterna round: R97, puzzle: Exclusion 2)”, the “apparent KD of MS2 coat protein” value by setting is: (input ligand: FMN 200 uM) 41.2 nM; (input ligand: none) 58.9 nM.
Turning to “AGAGGGCGAGGAUAUGCUAAAAGUGGUGCAGUUGUUCGUCGACUUGAGGAUCACCCAAGUAGAAGGCGCACUUC [Sointeer] (Eterna round: R97, puzzle: Exclusion 2)”, the “apparent KD of MS2 coat protein” value was determined as 67.9 nM (input ligand: FMN 200 uM) and 18.5 nM (input ligand: none).
Take “AGAGUACUGCGAGGAUAUACAUGAGGAUCACCCAUGUAAUAGUGUGAGGCUUUGCCUCACACAAUGUAGAAGGCGCAGUACUCA [Mat - Exclusion NG 2 - Mod of JL - D6] (Eterna round: R96, puzzle: Exclusion NG 2)”: the “apparent KD of MS2 coat protein” value was 15.7 nM (input ligand: FMN 200 uM), 9.81 nM under setting [4] and 17.8 nM (input ligand: none).
The like results for “AGAGUACUGCGAGGAUAUACAUGAGGAUCACCCAUGUGGUGGUGUGAGGCUUUGCCUCACACCAUGUAGAAGGCGCAGUACUCA [Mat - Exclusion NG 2 - Mod of JL - D19] (Eterna round: R96, puzzle: Exclusion NG 2)” were, in that order, 257 nM, 26.8 nM and 35.3 nM.
Regarding “AGAGUGCUGCGAGGAUAUACAUGAGGAUCACCCAUGUAAAUGUGUGAGGCUUUGCCUCACACAAUGUAGAAGGCGCAGUACUCU [Mat - Exclusion NG 2 - Mod of JL - D1] (Eterna round: R96, puzzle: Exclusion NG 2)”, the “apparent KD of MS2 coat protein” value is, setting by setting: (input ligand: FMN 200 uM) 17.8 nM; under setting [4], 8.58 nM; (input ligand: none) 15.6 nM.
With “AGAGUGCUGCGAGGAUAUACAUGAGGAUCACCCAUGUAUUAGUGUGAGGCUUUGCCUCACACAAUGUAGAAGGCGCAGUACUCA [Mat - Exclusion NG 2 - Mod of JL - D8] (Eterna round: R96, puzzle: Exclusion NG 2)”, the “apparent KD of MS2 coat protein” value by setting is: (input ligand: FMN 200 uM) 6.8 nM; under setting [4], 11.1 nM; (input ligand: none) 12.4 nM.
Regarding “AGAUAGUGGUGAGGAUAUCAGAAUAGAAAGAAAUGAGAAGGCACACAUGAGGAUCACCCAUGUGAGUUCUUGAGAUUACAUGGU [Prohibition 41 - Jieux - Exclusion NG 1] (Eterna round: R96, puzzle: Exclusion NG 1)”, the “apparent KD of MS2 coat protein” value under setting [4] was 14.4 nM.
For “AGAUAUAGAGGAUAUUUGCGGGAACACAUGAGGAUCACCCAUGUCGAAUAGACGCCCUAUAAAGAAGGCUAGACUG [Eternabot (L2) Solution 86] (Eterna round: R97, puzzle: Exclusion 5)”, the “apparent KD of MS2 coat protein” value was 15.7 nM (input ligand: FMN 200 uM) and 32.8 nM (input ligand: none).
In the case of “AGAUCACAUGAGGAUCACCCAUGUCAGGAUAUCGUCACUGGAGCUUCGGCUCCAGUGACGAGAAGGGACAUAAU [E1/2-A1] (Eterna round: R97, puzzle: Exclusion 1)”, the “apparent KD of MS2 coat protein” value runs as follows: (input ligand: FMN 200 uM) 161 nM; (input ligand: none) 554 nM.

The record behind these values is the supplement of paper PMC9170038.
